Results from patent publication US20220406376A1 (MacroGenics, published 2022).

Key:
[1] = target: T1, CD137 on the surface of cells (activated human T cells; engineered CHO cells) (human, UniProt Q07011 24-255); assay: flow cytometry on CD137-expressing CHO cells (CHO/137), anti-hFc APC MFI
T1 construct: whole, on cells; also called human CD137; cell surface expressed CD137

[2] = target: T1, CD137 on the surface of cells …; assay: flow cytometry on activated CD8+ T cells (donor D53781, CD8 FITC), anti-hFc APC MFI
[3] = target: T1, CD137 on the surface of cells …; assay: flow cytometry on CD137-expressing CHO cells (CHO/137), anti-hFc APC MFI; remark: listed apart in the source
[4] = target: T1, CD137 on the surface of cells …; assay: flow cytometry on activated CD8+ T cells (CD8 FITC), anti-hFc APC MFI
[5] = target: T2, HER2/neu on the surface of target cells (N87, JIMT-1, MCF-7, MDA-MB231) (UniProt P04626 23-1255, limits assumed); assay: flow cytometry on N87 gastric cancer cells, anti-hFc APC MFI
T2 construct: whole, on cells

[6] = target: T1, CD137 on the surface of cells …; assay: flow cytometry on activated pan T cells gated CD8, anti-hFc APC MFI
[7] = target: T1, CD137 on the surface of cells …; assay: as above; remark: listed apart in the source
[8] = target: T2, HER2/neu on the surface of target cells …; assay: flow cytometry on JIMT-1 cells, anti-hFc APC MFI
Description: (§1) CD137×TA Binding Molecules, DART-B, DART-D, DART-G and the control molecules DART-3 and DART-6 were additionally evaluated for their ability to bind to HER2/neu expressed on N87 cells (FIG. 13A) and JIMT-1 cells (FIG. 13B). For such evaluation, 100 μL of HER2/neu expressing target cells (1.0×1⁰⁶ cells/mL) and 100 μL of serially diluted (5- or 10-fold dilutions) test article (bispecific diabody) were added to each well of microtiter assay plate(s), mixed and incubated at RT for 45 min. The cells were washed with FACS Buffer and secondary antibody (anti-human-Fc region-APC) was then added to each well; mixed and incubated at RT for 30 min. Cells were washed and resuspended in 100 μL FACS Buffer and analyzed by flow cytometry (BD LSR Fortessa or FACSCanto 11) for cell event collection. Data analysis were performed via FloJo v10.

[9] = target: T2, HER2/neu on the surface of target cells …; assay: flow cytometry on N87 cells, anti-hFc APC MFI
Description: as §1

T1 sequence (Q07011 24-255, change not shown): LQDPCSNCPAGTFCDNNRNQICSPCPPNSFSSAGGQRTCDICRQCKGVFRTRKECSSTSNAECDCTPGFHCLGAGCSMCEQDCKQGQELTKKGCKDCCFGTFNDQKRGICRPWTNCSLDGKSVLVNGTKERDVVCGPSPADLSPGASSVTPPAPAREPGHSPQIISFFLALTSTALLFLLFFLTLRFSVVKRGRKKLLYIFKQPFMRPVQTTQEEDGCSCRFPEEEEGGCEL

Binder | EC50 (read off the curve) [1] | EC50 (read off the curve) [2] | EC50 (read off the curve) [3] | EC50 (read off the curve) [4] | binding result [5] | EC50 (read off the curve) [6] | EC50 (read off the curve) [7] | EC50 (read off the curve) [8] | EC50 (read off the curve) [9] | EC50 (read off the curve) [5] | binding result [7]
DART-6 (bispecific antibody, human IgG1, kappa, L234A L235A, also called RSV×CD137 control molecule; CD137×RSV control molecule) heavy: QVTLRESGPALVKPTQTLTLTCTFSGFSLSTSGMSVGWIRQPPGKALEWLADIWWDDKKDYNPSLKSRLTISKDTSKNQVVLKVTNMDPADTATYYCARSMITNWYFDVWGAGTTVTVSSASTKGPSVFPLAPSSKSTSGGTAALGCLVKDYFPEPVTVSWNSGALTSGVHTFPAVLQSSGLYSLSSVVTVPSSSLGTQTYICNVNHKPSNTKVDKRVEPKSCDKTHTCPPCPAPEAAGGPSVFLFPPKPKDTLMISRTPEVTCVVVDVSHEDPEVKFNWYVDGVEVHNAKTKPREEQYNSTYRVVSVLTVLHQDWLNGKEYKCKVSNKALPAPIEKTISKAKGQPREPQVYTLPPSREEMTKNQVSLSCAVKGFYPSDIAVEWESNGQPENNYKTTPPVLDSDGSFFLVSKLTVDKSRWQQGNVFSCSVMHEALHNRYTQKSLSLSPGK light: DIQMTQSPSTLSASVGDRVTITCRASQSVGYMHWYQQKPGKAPKLLIYDTSKLASGVPSRFSGSGSGTEFTLTISSLQPDDFATYYCFQGSGYPFTFGGGTKLEIKRTVAAPSVFIFPPSDEQLKSGTASVVCLLNNFYPREAKVQWKVDNALQSGNSQESVTEQDSKDSTYSLSSTLTLSKADYEKHKVYACEVTHQGLSSPVTKSFNRGEC chain 1: QVTLRESGPALVKPTQTLTLTCTFSGFSLSTSGMSVGWIRQPPGKALEWLADIWWDDKKDYNPSLKSRLTISKDTSKNQVVLKVTNMDPADTATYYCARSMITNWYFDVWGAGTTVTVSSASTKGPSVFPLAPSSKSTSGGTAALGCLVKDYFPEPVTVSWNSGALTSGVHTFPAVLQSSGLYSLSSVVTVPSSSLGTQTYICNVNHKPSNTKVDKRVEPKSCDKTHTCPPCPAPEAAGGPSVFLFPPKPKDTLMISRTPEVTCVVVDVSHEDPEVKFNWYVDGVEVHNAKTKPREEQYNSTYRVVSVLTVLHQDWLNGKEYKCKVSNKALPAPIEKTISKAKGQPREPQVYTLPPSREEMTKNQVSLWCLVKGFYPSDIAVEWESNGQPENNYKTTPPVLDSDGSFFLYSKLTVDKSRWQQGNVFSCSVMHEALHNHYTQKSLSLSPGGGGSGGGSGGGDIQMTQTTSSLSASLGDRVTISCRPSQDISNYLNWYQQKPDGTVKLLIYYTSRLRSGVPSRFSGSGSGTDYSLTISNLEQEDIATYFCQQGDTLPYTFGGGTKLEIKGGGSGGGGQVQLQQPGAELVRPGASVKLSCKASGYTFTSYWINWVKQRPGQGLEWIGNIYPSDSYTNYNQKFKDKATLTVDKSSSTAYMQLSSPTSEDSAVYYCTRDYGSSYSFDYWGQGTTLTVSSGGCGGGEVAALEKEVAALEKEVAALEKEVAALEK chain 2: DIQMTQTTSSLSASLGDRVTISCRPSQDISNYLNWYQQKPDGTVKLLIYYTSRLRSGVPSRFSGSGSGTDYSLTISNLEQEDIATYFCQQGDTLPYTFGGGTKLEIKGGGSGGGGQVQLQQPGAELVRPGASVKLSCKASGYTFTSYWINWVKQRPGQGLEWIGNIYPSDSYTNYNQKFKDKATLTVDKSSSTAYMQLSSPTSEDSAVYYCTRDYGSSYSFDYWGQGTTLTVSSGGCGGGKVAALKEKVAALKEKVAALKEKVAALKE | ~0.02 µg/mL | ~0.02 µg/mL | ~0.02 µg/mL | ~0.02 µg/mL | no binding | ~0.1 nM | ~0.2 nM | – | – | – | –
DART-3 (bispecific antibody, also called HER2×RSV control molecule; HER2/neu×RSV control molecule) chain 1: not shown chain 2: DIQMTQSPSTLSASVGDRVTITCRASQSVGYMHWYQQKPGKAPKLLIYDTSKLASGVPSRFSGSGSGTEFTLTISSLQPDDFATYYCFQGSGYPFTFGGGTKLEIKGGGSGGGGQVQLVQSGAEVKKPGASVKVSCKASGYTFTNYGMNWVRQAPGQGLEWMGWINTNIGEPTYTEEFKGRVTMTRDTSISTAYMELSRLRSDDTAVYYCARDDGYGNRVSYWGQGTLVTVSSGGCGGGKVAACKEKVAALKEKVAALKEKVAALKE | – | – | – | – | – | – | – | ~0.03 µg/mL | ~0.05 µg/mL | ~0.5 nM | no binding
